Sequences and labels used below:
B4: Cdc31 (recombinant, untagged, full length) (natural protein, yeast, UniProt P06704 1-161, looked up)
chain: MSKNRSSLQSGPLNSELLEEQKQEIYEAFSLFDMNNDGFLDYHELKVAMKALGFELPKREILDLIDEYDSEGRHLMKYDDFYIVMGEKILKRDPLDEIKRAFQLFDDDHTGKISIKNLRRVAKELGETLTDEELRAMIEEFDLDGDGEINENEFIAICTDS
notes: Cdc31, yeast, full length, cloned into pET30a and called untagged; the model holds residues 9–161; source: E. coli BL21(DE3) CodonPlus RIL, coexpressed with GST-Sac3 fragments, purified as a complex
B8: Sus1 (recombinant, untagged, full length) (natural protein, yeast, UniProt Q6WNK7 1-96, looked up)
chain: MTMDTAQLKSQIQQYLVESGNYELISNELKARLLQEGWVDKVKDLTKSEMNINESTNFTQILSTVEPKALEMVSDSTRETVLKQIREFLEEIVDTQ
notes: Sus1, yeast, full length; the model holds residues 6–95; also called Sus1A; Sus1B; source: E. coli BL21(DE3) CodonPlus RIL, untagged vector pOPT, purified as a complex with Sac3 fragment and Cdc31

One assay deals with T1, 6XHis-ENY2 (human, UniProt Q9NPA8 1-101).
T1 construct: ENY2, human homolog of Sus1; cDNA cloned into the NdeI and SalI sites of pET28a; also called human Sus1 homolog; DC6/ENY2; source: E. coli BL21, purified (Ni-NTA Agarose)
T1 sequence (looked up): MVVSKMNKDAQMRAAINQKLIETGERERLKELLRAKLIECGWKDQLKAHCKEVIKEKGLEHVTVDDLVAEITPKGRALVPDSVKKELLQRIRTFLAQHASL
The experiment in a line: pull-down; GST or GST fusions immobilised on glutathione Sepharose 4B; purified ENY2 added in 10-fold excess, washed extensively with NB buffer (150 mM NaCl, 50 mM KOAc, 20 mM Tris, 2 mM Mg(OAc)2, 0.1% NP-40); SDS-PAGE (Figure S4). The note with it: both partners purified.

Assay [1] deals with T2, Sac3 residues 723–805 (Sac3^CID) (yeast, UniProt P46674 723-805).
T2 construct: Vector pGEXTEV; also called CID domain; not shown: GST, N-terminal, cleaved
T2 sequence (looked up): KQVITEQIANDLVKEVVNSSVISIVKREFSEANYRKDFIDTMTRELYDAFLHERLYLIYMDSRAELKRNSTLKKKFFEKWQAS
The experiment in a line: crystal structure; Sac3 fragment:Cdc31:Sus1 complexes, hanging drop vapor diffusion in PEG solutions at 19°C; 2.5 Å (Sac3 753–805) and 2.7 Å (Sac3 723–805). The note with it: both partners purified.

Assay [2] concerns the target B4. The assay is described as above. The note with it: both partners purified.
In assay [3] the target is B8. The description is as above. Particulars: both partners purified.
Assay [4] has as its target T3, Sus1 (of the in vitro binding studies of Figure S6) (yeast, UniProt Q6WNK7 1-96).
T3 construct: Sus1, yeast
T3 sequence (looked up): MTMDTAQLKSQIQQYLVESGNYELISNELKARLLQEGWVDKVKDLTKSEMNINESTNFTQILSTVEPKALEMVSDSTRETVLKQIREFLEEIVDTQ
The experiment in a line: not stated; in vitro binding studies (Figure S6).

B1: GST-GANP(1162–1240) (domain or fragment, human, UniProt O60318 1162-1240, looked up)
chain: ELVLSELSQGLAVELMERVMMEFVRETCSQELKNAVETDQRVRVARCCEDVCAHLVDLFLVEEIFQTAKETLQELQCFC
notes: Vector pGEXTEV; not shown: GST, N-terminal, kept
Turning to B1, in the assay with 6XHis-ENY2, the binding result is “binds”.

B2: GST-GANP(1162–1204) (domain or fragment, human, UniProt O60318 1162-1204, looked up)
chain: ELVLSELSQGLAVELMERVMMEFVRETCSQELKNAVETDQRVR
notes: as for B1
With B2, the binding result with 6XHis-ENY2 is on record as “binds”.

B3: GST-Sac3(723–752) (domain or fragment, yeast, UniProt P46674 723-752, looked up)
chain: KQVITEQIANDLVKEVVNSSVISIVKREFS
notes: Vector pGEXTEV; source: E. coli, immobilised on glutathione Sepharose 4B resin from clarified lysate; not shown: GST, N-terminal, kept
Turning to B3, the binding result with 6XHis-ENY2 was “binds”.
On to B4, for which the “stoichiometry N” value in assay [1] stood at 1.

B5: GST-Sac3(758–805) (domain or fragment, yeast, UniProt P46674 758-805, looked up)
chain: KDFIDTMTRELYDAFLHERLYLIYMDSRAELKRNSTLKKKFFEKWQAS
notes: Vector pGEXTEV; The methods say that GST-Sac3 fragments were coexpressed with Cdc31; source: E. coli, immobilised on glutathione Sepharose 4B resin from clarified lysate; not shown: GST, N-terminal, kept
For B5, in the assay with 6XHis-ENY2, the binding result is given as “binds”.

B6: Sac3 residues 753–805 (domain or fragment, yeast, UniProt P46674 753-805, looked up)
chain: EANYRKDFIDTMTRELYDAFLHERLYLIYMDSRAELKRNSTLKKKFFEKWQAS
notes: Vector pGEXTEV; not shown: GST, N-terminal, cleaved
B6: the binding result in assay [2] and in assay [3] was “binds” in each case.

B7: Sac3 (construct of the in vitro binding studies of Figure S6) (domain or fragment)
chain: KQVITEQIANDLVKEVVNSSVISIVKREFSEANYRKDFIDTMTRELYDAFLHERLYLIYMDSRAELKRNSTLKKKFFEKWQAS
modifications: Supplement text on Sus1 affinity (Figure S6): plates coated with GST-Sac3(723-805) co-complexed with full-length Cdc31; GST and the Cdc31 partner chain (P06704) omitted here
On to B7, for which the Kd in assay [4] is ~10 nM.
As for B8, the “stoichiometry N” value in assay [1] is 2.

For the origin of these results see publication PMC2726291, “Sus1, Cdc31, and the Sac3 CID Region Form a Conserved Interaction Platform that Promotes Nuclear Pore Association and mRNA Export” (Molecular Cell, 2009).
